Results taken from patent US20240270857A1 (CHIA TAI TIANQING PHARMACEUTICAL GROUP, published 2024).
Residue numbers refer to the chain shown, from its start. Read-outs that look alike come from different tables or passages of the source. One block for each binder: values may come before it.

Tests used:
[1] = target: T1, cynomolgus IL-36R overexpressed on 293T-CynoIL36R-NFκB cells (cynomolgus monkey); assay: FACS on 293T-CynoIL36R-NFκB cells, ratio of MFI to background MFI
T1 construct: Entry includes the signal peptide; also called monkey IL-36R
T1 chain: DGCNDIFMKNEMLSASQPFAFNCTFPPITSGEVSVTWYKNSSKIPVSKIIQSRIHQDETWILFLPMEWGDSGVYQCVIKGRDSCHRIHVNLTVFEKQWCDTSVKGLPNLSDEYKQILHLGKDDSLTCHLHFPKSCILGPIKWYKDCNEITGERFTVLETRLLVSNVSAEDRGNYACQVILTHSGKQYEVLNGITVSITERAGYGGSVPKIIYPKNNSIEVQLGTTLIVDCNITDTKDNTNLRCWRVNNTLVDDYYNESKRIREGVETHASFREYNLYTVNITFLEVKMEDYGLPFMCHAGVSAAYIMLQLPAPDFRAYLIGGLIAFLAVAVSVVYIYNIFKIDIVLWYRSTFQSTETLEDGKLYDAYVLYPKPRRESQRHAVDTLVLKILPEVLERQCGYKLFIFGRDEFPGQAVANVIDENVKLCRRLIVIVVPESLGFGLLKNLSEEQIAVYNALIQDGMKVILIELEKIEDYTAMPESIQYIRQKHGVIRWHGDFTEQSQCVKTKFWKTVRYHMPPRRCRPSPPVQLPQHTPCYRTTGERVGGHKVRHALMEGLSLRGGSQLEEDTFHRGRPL
Description: After the cells was washed with PBS, the cells were resuspended with 100 μL of PBS and then the fluorescence signal was detected using a flow cytometer (BD, Accuri C6). […] The ratio was the ratio of mean fluorescence intensity (MFI) of the experimental group/the background MFI, and the resulting data were analyzed using GraphPad Prism.
Affinity, binding and blocking assays for humanized antibodies hz72C1-1.1, hz72C1-1.2, hz72C1-1.3, hz72C1-2.1, hz72C1-2.2 and hz72C1-2.3 as well as hz84C4-1.1, hz84C4-1.2, hz84C4-1.3, hz84C4-1.4, hz84C4-1.5, hz84C4-2.1, hz84C4-2.2, hz84C4-2.3, hz84C4-2.4 and hz84C4-2.5 were performed according to the methods of Example 4, Example 5. Example 6, Example 7 and Example 8.

[2] = target: T2, IL-36R naturally expressed on OVCAR8 cells and on normal human epidermal keratinocytes (NHK cells) (human, UniProt Q9HB29 20-575); assay: cell-based or functional assay
T2 sequence (looked up): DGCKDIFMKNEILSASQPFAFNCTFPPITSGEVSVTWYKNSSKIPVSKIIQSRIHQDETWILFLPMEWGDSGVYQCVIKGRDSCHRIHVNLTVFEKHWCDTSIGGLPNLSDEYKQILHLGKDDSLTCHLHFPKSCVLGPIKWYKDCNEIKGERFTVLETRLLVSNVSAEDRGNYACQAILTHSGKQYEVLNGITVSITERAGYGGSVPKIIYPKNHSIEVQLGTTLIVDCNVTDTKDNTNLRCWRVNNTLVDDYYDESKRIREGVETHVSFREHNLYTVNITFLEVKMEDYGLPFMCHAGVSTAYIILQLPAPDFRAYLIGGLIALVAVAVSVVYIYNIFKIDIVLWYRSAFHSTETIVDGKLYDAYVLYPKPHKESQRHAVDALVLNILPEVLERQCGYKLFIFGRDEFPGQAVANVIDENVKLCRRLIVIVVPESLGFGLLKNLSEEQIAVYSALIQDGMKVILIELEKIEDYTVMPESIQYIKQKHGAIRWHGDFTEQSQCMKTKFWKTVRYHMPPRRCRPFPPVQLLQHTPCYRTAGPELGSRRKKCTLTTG

[3] = target: T2, IL-36R naturally expressed on OVCAR8 …; assay: cell-based or functional assay; remark: listed apart in the source

B2: hz84C4-2.3 (antibody, human IgG4 S228P, kappa, V domains shown)
VH: QVQLVQSGAEVKKPGASVKVSCKASGYFFTSYWMNWVRQAPGQGLEWMGMIYPYDSETRYAQKFQGRVTMTVDKSTSTVYMELSSLRSEDTAVYYCASSTTAFAYWGQGTLVTVSS
VL: DIQMTQSPSSLSASVGDRVTITCRASQDIGNALNWLQQKPGKAPKRLIYATSSLDPGVPSRFSGSRSGTDYTLTISSLQPEDFATYYCLQYASSPYTFGQGTKVEIKR
notes: Humanized, human IgG4 / kappa
EC50 [1]: 176 nM
IC50 (M); hIL36α; IL-8 production [2]: ~6.47e-12 M
IC50 (M); hIL36αβγ; IL-8 production [2]: ~4.34e-12 M
IC50 (M); hIL36β; IL-8 production [2]: 3.42e-12 M
IC50; hIL36γ; IL-8 production [2]: 0.0062 nM
Maximum inhibition rate %; hIL36α; IL-8 production [2]: 28.4%
Maximum inhibition rate %; hIL36αβγ; IL-8 production [2]: 40.6%
Maximum inhibition rate %; hIL36β; IL-8 production [2]: 18.6%
Maximum inhibition rate %; hIL36γ; IL-8 production [2]: 41.5%
IC50 (M); hIL36α; IL-8 production [3]: ~9.24e-13 M
IC50 (M); hIL36αβγ; IL-8 production [3]: 8.23e-11 M
IC50 (M); hIL36β; IL-8 production [3]: ~2.73e-11 M
IC50 (M); hIL36γ; IL-8 production [3]: 8.76e-10 M
Maximum inhibition rate %; hIL36α; IL-8 production [3]: 44.5%
Maximum inhibition rate %; hIL36αβγ; IL-8 production [3]: 33.1%
Maximum inhibition rate %; hIL36β; IL-8 production [3]: 23.4%
Maximum inhibition rate %; hIL36γ; IL-8 production [3]: 57%

B3: hz84C4-1.4 (antibody, human IgG4 S228P, kappa, V domains shown)
VH: B2 VH with F28Y, Y52H, Y60L, Q65K
VL: B2 VL with L36Y, Y71F
notes: Humanized, human IgG4 / kappa
EC50 [1]: 24.4 nM
IC50 (M); hIL36α; IL-8 production [2]: 1.42e-11 M
IC50 (M); hIL36αβγ; IL-8 production [2]: 1.12e-11 M
IC50 (M); hIL36β; IL-8 production [2]: 1.46e-11 M
IC50 (M); hIL36γ; IL-8 production [2]: 7.75e-12 M
Maximum inhibition rate %; hIL36α; IL-8 production [2]: 99.5%
Maximum inhibition rate %; hIL36αβγ; IL-8 production [2]: 98.9%
Maximum inhibition rate %; hIL36β; IL-8 production [2]: 98.5%
Maximum inhibition rate %; hIL36γ; IL-8 production [2]: 99.4%
IC50 (M); hIL36α; IL-8 production [3]: 3.71e-11 M
IC50 (M); hIL36αβγ; IL-8 production [3]: 5.76e-11 M
IC50 (M); hIL36β; IL-8 production [3]: 3.48e-11 M
IC50 (M); hIL36γ; IL-8 production [3]: 5.01e-12 M
Maximum inhibition rate %; hIL36α; IL-8 production [3]: 94.4%
Maximum inhibition rate %; hIL36αβγ; IL-8 production [3]: 92.5%
Maximum inhibition rate %; hIL36β; IL-8 production [3]: 93.5%
Maximum inhibition rate %; hIL36γ; IL-8 production [3]: 109%

Binders with a lower EC50 [1], results first:

EC50 [1]: 17.1 nM
IC50 (M); hIL36α; IL-8 production [2]: 1.19e-11 M
IC50 (M); hIL36αβγ; IL-8 production [2]: 1.31e-11 M
IC50 (M); hIL36β; IL-8 production [2]: 8.59e-12 M
IC50 (M); hIL36γ; IL-8 production [2]: 8.61e-12 M
Maximum inhibition rate %; hIL36α; IL-8 production [2]: 99.2%
Maximum inhibition rate %; hIL36αβγ; IL-8 production [2]: 99.2%
Maximum inhibition rate %; hIL36β; IL-8 production [2]: 98.5%
Maximum inhibition rate %; hIL36γ; IL-8 production [2]: 98.7%
IC50 (M); hIL36α; IL-8 production [3]: 8.45e-11 M
IC50 (M); hIL36αβγ; IL-8 production [3]: 6.63e-11 M
IC50 (M); hIL36β; IL-8 production [3]: 4.64e-11 M
IC50 (M); hIL36γ; IL-8 production [3]: 6.21e-11 M
Maximum inhibition rate %; hIL36α; IL-8 production [3]: 95.1%
Maximum inhibition rate %; hIL36αβγ; IL-8 production [3]: 100%
Maximum inhibition rate %; hIL36β; IL-8 production [3]: 95.8%
Maximum inhibition rate %; hIL36γ; IL-8 production [3]: 15%
B4: hz84C4-2.2 (antibody, human IgG4 S228P, kappa, V domains shown)
VH: B2 VH with M50Y, Y52H
VL: B2 VL
notes: Humanized, human IgG4 / kappa

EC50 [1]: 5.75 nM
IC50 (M); hIL36α; IL-8 production [2]: 1.09e-11 M
IC50 (M); hIL36αβγ; IL-8 production [2]: 3.66e-12 M
IC50 (M); hIL36β; IL-8 production [2]: 5.7e-12 M
IC50 (M); hIL36γ; IL-8 production [2]: 6.45e-12 M
Maximum inhibition rate %; hIL36α; IL-8 production [2]: 99.9%
Maximum inhibition rate %; hIL36αβγ; IL-8 production [2]: 99.9%
Maximum inhibition rate %; hIL36β; IL-8 production [2]: 99.3%
Maximum inhibition rate %; hIL36γ; IL-8 production [2]: 99.6%
IC50 (M); hIL36α; IL-8 production [3]: 5.23e-11 M
IC50 (M); hIL36αβγ; IL-8 production [3]: 4.82e-11 M
IC50 (M); hIL36β; IL-8 production [3]: 3.18e-11 M
IC50 (M); hIL36γ; IL-8 production [3]: 1.81e-11 M
Maximum inhibition rate %; hIL36α; IL-8 production [3]: 99.5%
Maximum inhibition rate %; hIL36αβγ; IL-8 production [3]: 107%
Maximum inhibition rate %; hIL36β; IL-8 production [3]: 96.8%
Maximum inhibition rate %; hIL36γ; IL-8 production [3]: 97.5%
B1: hz84C4-2.1 (antibody, human IgG4 S228P, kappa, V domains shown)
VH: B2 VH with Y52H
VL: B2 VL
notes: Humanized, human IgG4 / kappa
